Data reported in the supplement of paper PMC6757056.
± gives the standard deviation of the averaged measurements.

B1: library; a variant is named by its letters at N, in order (parent)
chain: GCUGUCACCGGUGUAUUACCCUAGUGGUCGACCGGUCUGAUGAGUCUNNNNNNAGACGAAACAGC

What was measured:
[1] = variants of: B1; experiment: normalized RNA/DNA level with ligand (relative to sTRSVctl = 100) (log10 (% of sTRSVctl)); ligand: hypoxanthine (xanthine aptamer); higher = less ribozyme self-cleavage, higher mRNA level; details: ligand concentration (+) RNA-Seq: 5 mM, HEK293T, reporter: mCherry (pCS4076), ligand present: yes
How it was run: (§1)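 Ribozyme switch library plasmids with mCherry reporters (eGFP in certain ligand experiments) went into HEK293T cells at 4 µg per 6-well well. Where ligand was used, it was applied 1 h before transfection, and total RNA was extracted with EDTA 72 h later for reverse transcription, amplification, barcoding and sequencing. RNA level is the RNA-to-DNA read ratio normalized to a spiked-in non-cleaving sequence or to the leading sequences, then scaled and log-transformed. Scaling was ×100 with log10, the leading set comprised 25 sequences, and the cutoff was ≥100 DNA reads.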

[2] = variants of: B1; experiment: normalized RNA/DNA level without ligand (relative to sTRSVctl = 100) (log10 (% of sTRSVctl)); ligand: hypoxanthine (xanthine aptamer); higher = less ribozyme self-cleavage, higher mRNA level; details: HEK293T, reporter: mCherry (pCS4076), ligand present: no
How it was run: as §1

Row | Variant | normalized RNA/DNA level with ligand (log10) [1] | normalized RNA/DNA level without ligand (log10) [2]
1 | UGAGUA | 1.902 ± 0.015 | 1.81 ± 0.091
2 | UGAGUU | 1.92 ± 0.039 | 1.85 ± 0.042
3 | CGAUUG | 1.92 ± 0.045 | 1.922 ± 0.0055
4 | GGAUAU | 1.9 ± 0.023 | 1.78 ± 0.028
5 | UGCCAU | 1.909 ± 0.0083 | 1.817 ± 0.015
6 | UGCCAA | 1.906 ± 0.018 | 1.84 ± 0.021
7 | UGAUAG | 1.88 ± 0.04 | 1.7 ± 0.041
8 | UGAUAC | 1.926 ± 0.0041 | 1.848 ± 0.011
9 | UGAUAA | 1.91 ± 0.028 | 1.8144 ± 0.0015
10 | GGCGAA | 1.92 ± 0.037 | 1.801 ± 0.017
11 | GGCGAC | 1.93 ± 0.12 | 1.83 ± 0.021
12 | GGCGAG | 1.82 ± 0.021 | 1.47 ± 0.087
13 | AGCGGC | 1.959 ± 0.012 | 1.86 ± 0.042
14 | AGCGGU | 1.91 ± 0.024 | 1.55 ± 0.049
15 | GGCGGG | 1.93 ± 0.034 | 1.83 ± 0.061
16 | GGCGGC | 1.885 ± 0.015 | 1.525 ± 0.0082
17 | GGCGGU | 1.957 ± 0.014 | 1.949 ± 0.017
18 | AGCUCA | 1.998 ± 0.00082 | 1.895 ± 0.011
19 | AGCUCC | 1.97 ± 0.14 | 1.95 ± 0.034
20 | UGAGAC | 1.89 ± 0.024 | 1.83 ± 0.057
21 | GGCGCU | 1.973 ± 0.003 | 2.03 ± 0.022
22 | GGCGCC | 2.004 ± 0.0022 | 1.93 ± 0.024
23 | GGCGCG | 1.95 ± 0.028 | 1.81 ± 0.0088
24 | CGCGAU | 1.904 ± 0.0019 | 1.79 ± 0.036
25 | CGCGAA | 1.87 ± 0.029 | 1.7 ± 0.028
26 | CGCGAG | 1.84 ± 0.06 | 1.67 ± 0.011
27 | CGCGAC | 1.97 ± 0.067 | 1.75 ± 0.059
28 | AGCAGU | 1.83 ± 0.03 | 1.44 ± 0.036
29 | UGAUUG | 1.97 ± 0.043 | 1.763 ± 0.0098
